A word on the koff: it is the first-order rate constant of dissociation. For orientation: kon means a measure of how fast the partners come together. As usually defined, the IC50 is the concentration needed to halve the response being measured.

We go through three molecules from patent publication US20240067729A1 (PALLEON PHARMACEUTICALS, published 2024).

Experiment [1] concerns the target T1, cynomolgus PD-L1, his tagged (cPD-L1-his) (cynomolgus (Macaca fascicularis), UniProt G7PSE7 19-238).
T1 construct: also called cyPD-L1-His; Cyno PD-L1
In words: BLI (ForteBio Octet), cPD-L1-his analyte, 1:1 fit. As to the method: (§1) Characterization of chimeric anti-PD-L1 antibodies. ForteBio octet binding of purified chimeric antibodies and recombinant hPD-L1-his and cPD-L1-his was measured. Chimeric human antibodies were captured on AHC (Anti-human IgG-Capture) Biosensor, hPD-L1-his or cPD-L1-his analytes were titrated from 100 nM in a 2× series dilution. The buffer reference was subtracted from the signal and aligned to the baseline. KD, Kon and Koff values were generated using 1:1 fitting model as described above.

Experiment [2] deals with T1, cynomolgus PD-L1, his tagged …. In words: BLI (ForteBio Octet), IgG on AHC sensor, cPD-L1-his analyte, 1:1 fit. On the procedure:
as §1
On the technique in general: BLI is a label-free optical method that tracks binding on a fibre tip over time.

For experiment [3], the target named is T2, human PD-L1, his tagged (hPD-L1-his) (human, UniProt Q9NZQ7 19-238, limits assumed).
T2 construct: also called huPD-L1-His; recombinant human PD-L1; not shown: his tag
In words: BLI (ForteBio Octet), recombinant human PD-L1.

The target of experiment [4] is T2, human PD-L1, his tagged (hPD-L1-his). Put plainly: BLI (ForteBio Octet), hPD-L1-his. On the procedure:
as §1
Selected h769 antibodies were tested in the blocking ELISA as described in Example 3 herein. […] Selected h769 humanized PD-L1 antibodies were characterized following removal of the deamidation motif in CDR-L3. FIG. 25 depicts the ForteBio octet binding of purified humanized antibodies and recombinant hPD-L1-his was measured.

Experiment [5] shares this target. In words: BLI (ForteBio Octet), human PD-L1.
Experiment [6] concerns the target T1, cynomolgus PD-L1, his tagged …. Put plainly: BLI (ForteBio Octet), cynomolgus PD-L1.
The target of experiment [7] is T3, human PD-L1 expressed on cells (HCC827, NCI-H292, CHO-PD-L1, engineered CHO-K1) (human, UniProt Q9NZQ7 19-290). In words: cell-based or functional assay.
Experiment [8] deals with T3, human PD-L1 expressed on cells (HCC827, …). In words: flow cytometry on NCI-H292 cells, apparent Kd; calculated using data points up to 3.7 nM. On the procedure: (§2) The ability of PD-L1 antibody sialidase conjugates to bind PD-L1 on HCC827 and NCI-H292 cells was examined next. […] After washing with staining buffer, cells were incubated with AF647 Goat anti-human IgG(H+L) in staining buffer at 4° C. for 30 min. After 2× wash with staining buffer, cells were fixed and run on FACSCelesta.

Experiment [9] has the same target. In words: flow cytometry on HCC827 cells, apparent Kd; calculated using data points up to 3.7 nM. On the procedure: as §2
Experiment [10] concerns the target human PD-L1 (hPD-L1) coated on ELISA wells, Example 7 (human, UniProt Q9NZQ7 19-238, limits assumed). In words: blocking ELISA: titrated + biotinylated hPD-1-Fc 1 ug/mL on coated hPD-L1. The source says: The plate was developed with TMB and Stop buffer and the absorbance at 450 nm was read using a SpectraMax plate reader.

T2 sequence (Q9NZQ7 19-238 limits assumed): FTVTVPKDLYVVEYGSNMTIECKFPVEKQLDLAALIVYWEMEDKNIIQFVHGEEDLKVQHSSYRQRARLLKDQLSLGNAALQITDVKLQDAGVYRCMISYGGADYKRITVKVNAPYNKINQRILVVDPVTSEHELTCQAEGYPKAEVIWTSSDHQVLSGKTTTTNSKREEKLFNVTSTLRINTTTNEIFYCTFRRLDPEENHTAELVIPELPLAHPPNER
T3 sequence (Q9NZQ7 19-290, change not shown): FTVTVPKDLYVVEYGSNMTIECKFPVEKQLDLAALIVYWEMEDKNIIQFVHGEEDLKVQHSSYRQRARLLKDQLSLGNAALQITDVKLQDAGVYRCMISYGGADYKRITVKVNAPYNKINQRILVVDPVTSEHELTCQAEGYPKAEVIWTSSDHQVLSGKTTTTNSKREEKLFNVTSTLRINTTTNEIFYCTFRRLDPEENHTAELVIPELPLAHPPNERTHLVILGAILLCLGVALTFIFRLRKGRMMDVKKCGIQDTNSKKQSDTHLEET
T1 sequence (G7PSE7 entry or part of it limits assumed, form in doubt): as the sequence (Q9NZQ7 19-238 limits assumed) above, with A33T, A34S, S62N, R68Q, Q82R, F173L, T185A, T192I, H215L counted along it
Sequence of human PD-L1 (hPD-L1) coated on ELISA wells, Example 7 (Q9NZQ7 19-238 limits assumed): as the sequence (Q9NZQ7 19-238 limits assumed) above

B1: Avelumab (antibody, human IgG1, lambda, V domains shown)
VH: EVQLLESGGGLVQPGGSLRLSCAASGFTFSSYIMMWVRQAPGKGLEWVSSIYPSGGITFYADTVKGRFTISRDNSKNTLYLQMNSLRAEDTAVYYCARIKLGTVTTVDYWGQGTLVTVSS
VL: QSALTQPASVSGSPGQSITISCTGTSSDVGGYNYVSWYQQHPGKAPKLMIYDVSNRPSGVSNRFSGSKSGNTASLTISGLQAEDEADYYCSSYTSSSTRVFGTGTKVTVLG
For the molecule B1, the Kd in [1] turned out to be 1.7 nM; in [2] it was 0.994 nM.

B2: h769-N93T (h769.T), humanized 769-hIgG1 variant (antibody, V domains shown)
VH: EVQLVQSGAEVKKPGATVKISCKVSGFNIKDTYMHWVQQAPGKGLEWMGLIDPANDNTIYAEKFQGRVTITADTSTDTAYMELSSLRSEDTAVYYCAREGYGGSYGEGYWGQGTLVTVSS
VL: EIVMTQSPPTLSLSPGERVTLSCRASQSVSNDLSWYQQKPGQAPRLLIYYASIRFTGIPARFSGSGSGTDFTLTISSLQPEDFAVYYCQQDYTSPWTFGQGTKVEIK
notes: Human IgG1
As for B2, in experiment [3], the Kd is 1.76 nM, the koff was 0.000629 s⁻¹ and the kon was 357000 M⁻¹ s⁻¹. In [4], this molecule gave a Kd of 1.82 nM, a koff of 0.000597 s⁻¹ and a kon of 328000 M⁻¹ s⁻¹.

B3: h769.T-1A (antibody, V domains shown)
VH: EVQLVQSGAEVKKPGATVKISCKVSGFNIKDTYMHWVQQAPGKGLEWMGLIDPANDNTIYAEKFQGRVTITADTSTDTAYMELSSLRSEDTAVYYCAREGYGGSYGEGYWGQGTLVTVSS
VL: EIVMTQSPPTLSLSPGERVTLSCRASQSVSNDLSWYQQKPGQAPRLLIYYASIRFTGIPARFSGSGSGTDFTLTISSLQPEDFAVYYCQQDYTSPWTFGQGTKVEIK
notes: bivalent
On to B3, for which the Kd in experiment [5] was 2.13 nM; in experiment [6] it was 1.53 nM; in experiment [8], 0.0973 nM; in experiment [9] it was 0.125 nM. The koff in experiment [5] turned out to be 0.000728 s⁻¹; in experiment [6], 0.000443 s⁻¹. The kon in [5] is 346000 M⁻¹ s⁻¹; in experiment [6] it was 297000 M⁻¹ s⁻¹. For the same molecule, the “EC50 (NFAT-luciferase fold induction)” value in [7] turned out to be 0.56 nM. In addition, the IC50 in experiment [10] is 1.44 nM.
